The target in assay [1] is T1, CD3 on the surface of T cells (human, UniProt P07766 23-207).
T1 construct: whole, on cells; multi-chain complex; also called CD3 epsilon
As to the kind of experiment: flow cytometry, construct titrated on isolated primary T cells, fluorophore-conjugated anti-human IgG Fc secondary. The protocol: (§1) Binding of exemplary multispecific polypeptide constructs of the disclosure containing an antigen-binding domain directed against DLL3 to CD3 on the surface of primary T cells and to DLL3 expressing cells (SHP-77) was assessed by flow cytometry. […] These binding assays were conducted by flow cytometry, wherein bound constructs were detected using a fluorophore-conjugated anti-human IgG Fc secondary antibody.
A general note: A flow cytometer gives signals particle by particle.

The target of assay [2] is T2, human DLL3 (Delta-like ligand 3) (human, UniProt Q9NYJ7 27-618).
T2 construct: endogenous on SHP-77 cells; also called cell-surface DLL3
T2 sequence: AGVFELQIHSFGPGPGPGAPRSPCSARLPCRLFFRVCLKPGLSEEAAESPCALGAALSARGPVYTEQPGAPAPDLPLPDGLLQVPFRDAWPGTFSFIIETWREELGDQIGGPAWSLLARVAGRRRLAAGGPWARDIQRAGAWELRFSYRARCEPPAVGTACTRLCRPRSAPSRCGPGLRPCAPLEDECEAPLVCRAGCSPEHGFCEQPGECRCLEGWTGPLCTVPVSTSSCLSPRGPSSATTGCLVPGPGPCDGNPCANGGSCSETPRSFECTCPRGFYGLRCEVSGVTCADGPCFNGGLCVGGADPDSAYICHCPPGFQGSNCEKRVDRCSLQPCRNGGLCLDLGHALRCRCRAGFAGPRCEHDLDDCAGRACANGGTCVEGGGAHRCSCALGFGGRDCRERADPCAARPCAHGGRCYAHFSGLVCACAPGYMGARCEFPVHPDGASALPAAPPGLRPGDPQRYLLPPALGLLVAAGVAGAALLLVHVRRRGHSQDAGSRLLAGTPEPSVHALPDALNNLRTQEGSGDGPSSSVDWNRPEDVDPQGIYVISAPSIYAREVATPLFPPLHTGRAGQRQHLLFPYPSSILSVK
As to the kind of experiment: flow cytometry, construct titrated on SHP-77 cells (DLL3 positive), fluorophore-conjugated anti-human IgG Fc secondary. The protocol:
as §1

Assay [3] concerns the target T2, human DLL3 (Delta-like ligand 3). As to the kind of experiment: flow cytometry, SHP-77 cells. The protocol: (§2) Binding of exemplary DLL3-targeting constrained CD3 engaging constructs of the disclosure, referred to herein as cx4720, cx3715, cx4422, cx3708, cx4052, cx3985, cx4059, cx4087, cx4088, cx4895, cx3991, cx3711, cx4887, cx4896, cx4899, cx4406, cx3707, cx3710, cx4888 and cx4890, to CD3 on the surface of primary T cells was assessed via flow cytometry (SONY SA3800 spectral analyzer) using T-cell that were negatively enriched from PBMCs isolated from healthy human donor leukopaks. Representative DLL3-targeting constrained CD3 engaging constructs were assessed for binding to T cells and DLL3 expressing cells (SHP-77). Bound cx4720, cx3715, cx4422, cx3708, cx4052, cx3985, cx4059, cx4087, cx4088, cx4895, cx3991, cx3711, cx4887, cx4896, cx4899, cx4406, cx3707, cx3710, cx4888 and cx4890 was detected with fluorophore-conjugated secondary antibodies specific for the human Fc and binding was measured by flow cytometry. Cells incubated with secondary antibody only served as negative controls.
(§3) Table E4 summarizes the affinity of exemplary molecules for DLL3 or CD3, as determined from flow cytometry, in these studies.

The target in assay [4] is T1, CD3 on the surface of T cells. As to the kind of experiment: flow cytometry, primary human T cells. The protocol: as §2, §3

T1 sequence (P07766 23-207): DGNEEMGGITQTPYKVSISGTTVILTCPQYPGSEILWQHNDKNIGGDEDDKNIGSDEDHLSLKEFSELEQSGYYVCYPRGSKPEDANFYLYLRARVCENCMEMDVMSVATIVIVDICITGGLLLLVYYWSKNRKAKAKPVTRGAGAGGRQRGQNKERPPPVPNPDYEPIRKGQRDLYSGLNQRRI

B1: cx5352 (bispecific antibody)
chain 1: EVQLVESGGGEVQPGGSLRLSCAASGSIFSINAMGWYRQAPGKQRELVAGFTGDTNTIYAESVKGRFTISRDNAKNTVYLQMSSLRAEDTAVYYCAADVQLFSRDYEFYWGQGTLVTVKPDKTHTCPPCPAPGGPSVFLFPPKPKDTLMISRTPEVTCVVVDVSHEDPEVKFNWYVDGVEVHNAKTKPREEQYNSTYRVVSVLTVLHQDWLNGKEYKCKVSNKALPAPIEKTISKAKGQPREPQVYTLPPCRDELTKNQVSLWCLVKGFYPSDIAVEWESNGQPENNYKTTPPVLDSDGSFFLYSKLTVDKSRWQQGNVFSCSVMHEALHNHYTQKSLSLSPTGGGGGSGGGGGSGGGGGSEVQLVESGGGLVQPGGSLRLSCAASGFTFNTYAMNWVRQAPGKCLEWVARIRSKYNNYATYYADSVKGRFTISRDDAKNTLYLQMSSLRAEDTAVYYCVRHGNFGNSYVSWFAYWGQGTLVTVKPEVQLVESGGGEVQPGGSLRLSCGPSEIITSDKSMGWVRQAPGKQRNLVAGISNVGSTNYAQSVKGRFTISRDNAKNTVYLQMSSLRAEDTAVYYCYARDFENEYWGQGTLVTVKP
chain 2: DKTHTCPPCPAPGGPSVFLFPPKPKDTLMISRTPEVTCVVVDVSHEDPEVKFNWYVDGVEVHNAKTKPREEQYNSTYRVVSVLTVLHQDWLNGKEYKCKVSNKALPAPIEKTISKAKGQPREPQVCTLPPSRDELTKNQVSLSCAVKGFYPSDIAVEWESNGQPENNYKTTPPVLDSDGSFFLVSKLTVDKSRWQQGNVFSCSVMHEALHNRYTQKSLSLSPTGGGGGSGGGGGSGGGGGSQAVVTQEPSLTVSPGGTVTLTCGSSTGAVTTSNYANWVQQKPGQAFRGLIGGTNKRAPGVPARFSGSLLGGKAALTISGAQPEDEADYYCALWYSNHWVFGCGTKLEIKEVQLLESGGGEVQPGGSLRLSCAASGFSFSINAMGWYRQAPGKRREFVAAIESGRNTVYAESVKGRFTISRDNAKNTVYLQMSSLRAEDTAVYYCGLLKGNRVVSPSVAYWGQGTLVTVKP
B1: the binding result in assay [1] is “no binding (tested: about 67 nM)”; in assay [2], “binds”.

B2: cx5800 (bispecific antibody)
chain 1: EVQLVESGGGEVQPGGSLRLSCAASGSIFSINAMGWYRQAPGKQRELVAGFTGDTNTIYAESVKGRFTISRDNAKNTVYLQMSSLRAEDTAVYYCAADVQLFSRDYEFYWGQGTLVTVKPDKTHTCPPCPAPGGPSVFLFPPKPKDTLMISRTPEVTCVVVDVSHEDPEVKFNWYVDGVEVHNAKTKPREEQYNSTYRVVSVLTVLHQDWLNGKEYKCKVSNKALPAPIEKTISKAKGQPREPQVYTLPPCRDELTKNQVSLWCLVKGFYPSDIAVEWESNGQPENNYKTTPPVLDSDGSFFLYSKLTVDKSRWQQGNVFSCSVMHEALHNHYTQKSLSLSPTGGGGGSGGGGGSGGGGGSEVQLVESGGGLVQPGGSLRLSCAASGFTFNTYAMNWVRQAPGKCLEWVARIRSKYNNYATYYADSVKGRFTISRDDAKNTLYLQMSSLRAEDTAVYYCVRHGNFGNSYVSWFAYWGQGTLVTVKP
chain 2: B1 chain 2
notes: monovalent for DLL3; junction linkers not placed
With B2, the binding result is “no binding (tested: about 67 nM)” in assay [1] and “binds” in assay [2].

B3: cx4895 (bispecific antibody)
chain 1: EVQLVQSGGGLVQAGGSLRLSCAASGSILSINAMGWYRQPPGKQREMVAGFTGDGNTIYADSVKGRFTISRDNAKNTVYLQMNSLKPEDTAVYYCAADVQLFSRDYEFYWGQGTQVTVKPDKTHTCPPCPAPGGPSVFLFPPKPKDTLMISRTPEVTCVVVDVSHEDPEVKFNWYVDGVEVHNAKTKPREEQYNSTYRVVSVLTVLHQDWLNGKEYKCKVSNKALPAPIEKTISKAKGQPREPQVYTLPPCRDELTKNQVSLWCLVKGFYPSDIAVEWESNGQPENNYKTTPPVLDSDGSFFLYSKLTVDKSRWQQGNVFSCSVMHEALHNHYTQKSLSLSPTGGGGGSGGGGGSGGGGGSEVQLVESGGGLVQPGGSLRLSCAASGFTFNTYAMNWVRQAPGKCLEWVARIRSKYNNYATYYADSVKGRFTISRDDAKNTLYLQMSSLRAEDTAVYYCVRHGNFGNSYVSWFAYWGQGTLVTVKPEVQLQESGGGLVQAGGSLRLSCGPSEIITSDKSVGWWRQAPGKQRNLVAGISNVGSTNYAQSVKGRFTISRDNAKNTLFLQMNSLKPEDTAVYYCYARDFENEYWGRGTQVTVKP
chain 2: B1 chain 2
notes: as printed the same parts as cx4720
What is called Kd is the concentration at which binding is half-saturated. The low end stands for higher affinity, the high end for lower affinity. Consider B3, for which the Kd was 0.065 nM in assay [3] and greater than 200 nM in assay [4].

B4: cx4890 (bispecific antibody)
chain 1: B3 chain 1
chain 2: DKTHTCPPCPAPGGPSVFLFPPKPKDTLMISRTPEVTCVVVDVSHEDPEVKFNWYVDGVEVHNAKTKPREEQYNSTYRVVSVLTVLHQDWLNGKEYKCKVSNKALPAPIEKTISKAKGQPREPQVCTLPPSRDELTKNQVSLSCAVKGFYPSDIAVEWESNGQPENNYKTTPPVLDSDGSFFLVSKLTVDKSRWQQGNVFSCSVMHEALHNRYTQKSLSLSPTGGGGGSGGGGGSGGGGGSQAVVTQEPSLTVSPGGTVTLTCGSSTGAVTTSNYANWVQQKPGQAFRGLIGGTNKRAPGVPARFSGSLLGGKAALTISGAQPEDEADYYCALWYSNHWVFGCGTKLEIK
Turning to B4, the Kd was 0.062 nM in assay [3] and greater than 200 nM in assay [4].

B5: cx4899 (bispecific antibody)
chain 1: EVQLVESGGGEVQPGGSLRLSCGPSEIITSDKSVGWWRQAPGKQRNLVAGISNVGSTNYAQSVKGRFTISRDNAKNTLYLQMSSLRAEDTAVYYCYARDFENEYWGQGTLVTVKPDKTHTCPPCPAPGGPSVFLFPPKPKDTLMISRTPEVTCVVVDVSHEDPEVKFNWYVDGVEVHNAKTKPREEQYNSTYRVVSVLTVLHQDWLNGKEYKCKVSNKALPAPIEKTISKAKGQPREPQVYTLPPCRDELTKNQVSLWCLVKGFYPSDIAVEWESNGQPENNYKTTPPVLDSDGSFFLYSKLTVDKSRWQQGNVFSCSVMHEALHNHYTQKSLSLSPTGGGGGSGGGGGSGGGGGSEVQLVESGGGLVQPGGSLRLSCAASGFTFNTYAMNWVRQAPGKCLEWVARIRSKYNNYATYYADSVKGRFTISRDDAKNTLYLQMSSLRAEDTAVYYCVRHGNFGNSYVSWFAYWGQGTLVTVKPEVQLVESGGGEVQPGGSLRLSCAASGSIFSINAMGWYRQAPGKQRELVAGFTGDTNTIYAESVKGRFTISRDNAKNTVYLQMSSLRAEDTAVYYCAADVQLFSRDYEFYWGQGTLVTVKP
chain 2: B4 chain 2
For the molecule B5, the figures for the Kd in assay [3] and in assay [4] were 0.397 nM and greater than 200 nM, respectively.
